In patent US20220162320A1 (published 2022):

Molecular target: HLA-PEPTIDE target G10: HLA-A*01:01_…, recombinant soluble complex (human, enzymatically biotinylated (BirA))
Assay: phage display, scFv ELISA on pHLA against negative control pHLAs

binding result	Binder
binds	scFv G10(2C04) (scFv, V domains shown) VH: QVQLVQSGAEVKKPGASVKVSCKASGGTFSNSIINWVRQAPGQGLEWMGWMNPNSGNTNYAQKFQGRVTMTRDTSTSTVYMELSSLRSEDTAVYYCAREQWPSYWYFDLWGRGTLVTVSS VL: not shown
binds	scFv G10(1A07) (scFv, V domains shown) VH: EVQLLESGGGLVKPGGSLRLSCAASGFTFSSYWMSWVRQAPGKGLEWVSGISARSGRTYYADSVKGRFTISRDDSKNTLYLQMNSLKTEDTAVYYCARDQDTIFGVVITWFDPWGQGTLVTVSS VL: DIQMTQSPSSLSASVGDRVTITCRASQGISNYLAWYQQKPGKAPKLLIYAASSLQGGVPSRFSGSGSGTDFTLTISSLQPEDFATYYCQQYFTTPYTFGQGTKLEIK
binds	scFv G10(4D10) (scFv, V domains shown) VH: QVQLVQSGAEVKKPGASVKVSCKASGYTFTGYYLHWVRQAPGQGLEWMGMIGPSDGSTSYAQKFQGRVTMTRDTSTSTVYMELSSLRSEDTAVYYCARDGDAFDIWGQGTMVTVSS VL: DIQMTQSPSSLSASVGDRVTITCRASQGISSWLAWYQQKPGKAPKLLIYDASNLETGVPSRFSGSGSGTDFTLTISSLQPEDFATYYCQQSYSTPLTFGGGTKVEIK
binds	scFv G10(1H01) (scFv, V domains shown) VH: QVQLVQSGAEVKKPGASVKVSCKASGYTFTGYYMHWVRQAPGQGLEWMGMIGPSDGSTSYAQKFQGRVTMTRDTSTSTVYMELSSLRSEDTAVYYCARGVGNLDYWGQGTLVTVSS VL: DIQMTQSPSSLSASVGDRVTITCRASQSISNYLNWYQQKPGKAPKLLIYAASSLQSGVPSRFSGSGSGTDFTLTISSLQPEDFATYYCHQTYSTPLTFGQGTKVEIK
binds	scFv G10(1F06) (scFv, V domains shown, also called G10(1F6)) VH: QVQLVQSGAEVKKPGASVKVSCKASGYTFIGYYMHWVRQAPGQGLEWMGMIGPSDGSTSYAQKFQGRVTMTRDTSTSTVYMELSSLRSEDTAVYYCARDSSGLDPWGQGTLVTVSS VL: DIQMTQSPSSLSASVGDRVTITCRASQSISNYLNWYQQKPGKAPKLLIYKASSLESGVPSRFSGSGSGTDFTLTISSLQPEDFATYYCQQSYIIPYTFGQGTKLEIK
binds	scFv G10(2G11) (scFv, V domains shown) VH: QVQLVQSGAEVKKPGASVKVSCKASGGTFSTHDINWVRQAPGQGLEWMGVINPSGGSAIYAQKFQGRVTMTRDTSTSTVYMELSSLRSEDTAVYYCARDRGYSYGYFDYWGQGTLVTVSS VL: DIQMTQSPSSLSASVGDRVTITCRASQDISRYLAWYQQKPGKAPKLLIYDASNLETGVPSRFSGSGSGTDFTLTISSLQPEDFATYYCQQANSFPRTFGQGTKVEIK
binds	scFv G10(1E12) (scFv, V domains shown) VH: QVQLVQSGAEVKKPGASVKVSCKASGYIFTGYYMHWVRQAPGQGLEWMGMIGPSDGSTSYAQKFQGRVTMTRDTSTSTVYMELSSLRSEDTAVYYCAREDDSMDVWGKGTTVTVSS VL: not shown
binds	scFv G10(3E04) (scFv, V domains shown) VH: QVQLVQSGAEVKKPGASVKVSCKASGNTFIGYYVHWVRQAPGQGLEWVGIINPNGGSISYAQKFQGRVTMTRDTSTSTVYMELSSLRSEDTAVYYCARGSGDPNYYYYYGLDVWGQGTTVTVSS VL: DIQMTQSPSSLSASVGDRVTITCQASQDISNYLNWYQQKPGKAPKLLIYAASNLQSGVPSRFSGSGSGTDFTLTISSLQPEDFATYYCQQANSLPYTFGQGTKVEIK
binds	scFv G10(4D04) (scFv, V domains shown) VH: QVQLVQSGAEVKKPGASVKVSCKASGYTFTGYYVHWVRQAPGQGLEWMGIIAPSDGSTNYAQKFQGRVTMTRDTSTSTVYMELSSLRSEDTAVYYCARDPGGYMDVWGKGTTVTVSS VL: DIQMTQSPSSLSASVGDRVTITCRASQSISSYLAWYQQKPGKAPKLLIYDASKLETGVPSRFSGSGSGTDFTLTISSLQPEDFATYYCQQSYGVPTFGQGTKLEIK

Molecular target: HLA-PEPTIDE target G8: HLA-A*02:01_…, recombinant soluble complex (human, enzymatically biotinylated (BirA) for screening and BLI)
Assay: as above

binding result	Binder
binds	scFv G8(5G08) (scFv, V domains shown) VH: QVQLVQSGAEVKKPGASVKVSCKASGYTFTSNYMHWVRQAPGQGLEWMGWMNPNSGNTGYAQKFQGRVTMTRDTSTSTVYMELSSLRSEDTAVYYCARGLYGDYFLYYGMDVWGQGTTVTVSS VL: not shown
binds	scFv G8(1A04) (scFv, V domains shown) VH: QVQLVQSGAEVKKPGASVKVSCKASGYPFIGQYLHWVRQAPGQGLEWMGIINPSGDSATYAQKFQGRVTMTRDTSTSTVYMELSSLRSEDTAVYYCARDLSYYYGMDVWGQGTTVTVSS VL: DIQMTQSPSSLSASVGDRVTITCWASQGISSYLAWYQQKPGKAPKLLIYAASSLQSGVPSRFSGSGSGTDFTLTISSLQPEDFATYYCQQSYNTPWTFGPGTKVDIK
binds	scFv G8(1D02) (scFv, V domains shown) VH: EVQLLESGGGLVQPGGSLRLSCAASGFTFSSYWMSWVRQAPGKGLEWVSSISGRGDNTYYADSVKGRFTISRDNSKNTLYLQMNSLRAEDTAVYYCARASGSGYYYYYGMDVWGQGTTVTVSS VL: DIQMTQSPSSLSASVGDRVTITCQASQDISNYLNWYQQKPGKAPKLLIYAASSLQSGVPSRFSGSGSGTDFTLTISSLQPEDFATYYCQQSYSAPYTFGGGTKVEIK
binds	scFv G8(2E06) (scFv, V domains shown) VH: QVQLVQSGAEVKKPGASVKVSCKASGYTLTTYYMHWVRQAPGQGLEWMGWINPNSGGTNYAQKFQGRVTMTRDTSTSTVYMELSSLRSEDTAVYYCARAVYYDFWSGPFDYWGQGTLVTVSS VL: DIQMTQSPSSLSASVGDRVTITCRASQGISNSLAWYQQKPGKAPKLLIYAASSLQSGVPSRFSGSGSGTDFTLTISSLQPEDFATYYCQQANSFPWTFGQGTKLEIK
binds	scFv G8(4F05) (scFv, V domains shown) VH: QVQLVQSGAEVKKPGASVKVSCKASGYTFSNMYLHWVRQAPGQGLEWMGWINPNTGDTNYAQTFQGRVTMTRDTSTSTVYMELSSLRSEDTAVYYCARGLYGDYFLYYGMDVWGQGTKVTVSS VL: DIQMTQSPSSLSASVGDRVTITCRASQGISNYLAWYQQKPGKAPKLLIYAASTLQSGVPSRFSGSGSGTDFTLTISSLQPEDFATYYCQQSYSTPLTFGGGTKVEIK
binds	scFv G8(1B03) (scFv, V domains shown) VH: EVQLLESGGGLVQPGGSLRLSCAASGFTFSDYYMSWVRQAPGKGLEWVSGINWNGGSTGYADSVKGRFTISRDNSKNTLYLQMNSLRAEDTAVYYCARVEQGYDIYYYYYMDVWGKGTTVTVSS VL: DIQMTQSPSSLSASVGDRVTITCRASQSISSYLNWYQQKPGKAPKLLIYKASSLESGVPSRFSGSGSGTDFTLTISSLQPEDFATYYCQQSYSAPYTFGPGTKVDIK
binds	scFv G8(5C03) (scFv, V domains shown) VH: QVQLVQSGAEVKKPGASVKVSCKASGYTFTSYYMHWVRQAPGQGLEWMGWMNPNSGNTGYAQKFQGRVTMTRDTSTSTVYMELSSLRSEDTAVYYCARGLLGFGEFLTYGMDVWGQGTLVTVSS VL: DIQMTQSPSSLSASVGDRVTITCRASQGISNWLAWYQQKPGKAPKLLIYAASTLQSGVPSRFSGSGSGTDFTLTISSLQPEDFATYYCQQTYSTPWTFGQGTKLEIK
binds	scFv G8(5F02) (scFv, V domains shown) VH: QVQLVQSGAEVKKPGASVKVSCKASGYTFTGYYIHWVRQAPGQGLEWMGVINPSGGSTTYAQKLQGRVTMTRDTSTSTVYMELSSLRSEDTAVYYCARDRDSSWTYYYYGMDVWGQGTTVTVSS VL: EIVMTQSPATLSVSPGERATLSCRASQSVGNSLAWYQQKPGQAPRLLIYGASTRATGIPARFSGSGSGTEFTLTISSLQSEDFAVYYCQQYGSSPYTFGQGTKVEIK
binds	scFv G8(1A06) (scFv, V domains shown) VH: QVQLVQSGAEVKKPGASVKVSCKASGYTFTNYYMHWVRQAPGQGLEWMGWMNPIGGGTGYAQKFQGRVTMTRDTSTSTVYMELSSLRSEDTAVYYCARVYDFWSVLSGFDIWGQGTLVTVSS VL: DIQMTQSPSSLSASVGDRVTITCRASQAISNSLAWYQQKPGKAPKLLIYAASTLQSGVPSRFSGSGSGTDFTLTISSLQPEDFATYYCGQSYSTPPTFGQGTKLEIK
binds	scFv G8(2B05) (scFv, V domains shown) VH: EVQLLESGGGLVQPGGSLRLSCAASGFDFSIYSMNWVRQAPGKGLEWVSAISGSGGSTYYADSVKGRFTISRDNSKNTLYLQMNSLRAEDTAVYYCASNGNYYGSGSYYNYWGQGTLVTVSS VL: DIQMTQSPSSLSASVGDRVTITCRASQSISRWLAWYQQKPGKAPKLLIYAASSLQSGVPSRFSGSGSGTDFTLTISSLQPEDFATYYCQQYSTYPITIGQGTKVEIK
binds	scFv G8(1H08) (scFv, V domains shown, also called G8-P1H08) VH: QVQLVQSGAEVKKPGASVKVSCKASGYTFGNYFMHWVRQAPGQGLEWMGMVNPSGGSETFAQKFQGRVTMTRDTSTSTVYMELSSLRSEDTAVYYCAASTWIQPFDYWGQGTLVTVSS VL: DIQMTQSPSSLSASVGDRVTITCRASQGINSYLAWYQQKPGKAPKLLIYDASNLETGVPSRFSGSGSGTDFTLTISSLQPEDFATYYCQQHNSYPPTFGQGTKLEIK
binds	scFv G8(1C01) (scFv, V domains shown) VH: QVQLVQSGAEVKKPGASVKVSCKASGGTFSSHAISWVRQAPGQGLEWMGVIIPSGGTSYTQKFQGRVTMTRDTSTSTVYMELSSLRSEDTAVYYCARGDYYDSSGYYFPVYFDYWGQGTLVTVSS VL: DIQMTQSPSSLSASVGDRVTITCRASQNIYTYLNWYQQKPGKAPKLLIYDASNLETGVPSRFSGSGSGTDFTLTISSLQPEDFATYYCQQANGFPLTFGGGTKVEIK
binds	scFv G8(1A03) (scFv, V domains shown) VH: QVQLVQSGAEVKKPGASVKVSCKASGGTFSRSAITWVRQAPGQGLEWMGWINPNSGATNYAQKFQGRVTMTRDTSTSTVYMELSSLRSEDTAVYYCARDDYGDYVAYFQHWGQGTLVTVSS VL: DIQMTQSPSSLSASVGDRVTITCRASQSITSYLNWYQQKPGKAPKLLIYDASNLETGVPSRFSGSGSGTDFTLTISSLQPEDFATYYCQQNYNSVTFGQGTKLEIK
